Assay [1] has as its target T1, PvDBP-RII subdomain 3 (Plasmodium vivax Salvador I, UniProt P22290).
T1 construct: also called SD3; not shown: His-tag, N-terminal, cleaved
The assay is described as follows: SPR; Biacore T200; DB9 captured on a CM5 chip amine-coupled with protein A/G; analytes flowed in a two-fold dilution series from 1 μM; 20mM HEPES pH 7.4, 150mM NaCl, 0.005% Tween-20. Particulars: both partners purified.

Assay [2] has as its target T2, Plasmodium vivax Duffy binding protein region II (PvDBP-RII) (Plasmodium vivax Salvador I (strain as …, UniProt P22290)).
T2 construct: The tag and its TEV cleavage hold only if the pET15b construct was the one used; SalI is named only for the transgenic parasites; also called RII region of PvDBP; source: the same paragraph also says cloned into modified pET15b, expressed in E. coli BL21-DE3; not shown: His-tag, N-terminal, cleaved
Described as above. Particulars: both partners purified.

The target in assay [3] is T3, Plasmodium vivax Duffy binding protein region II (PvDBP-RII) (Plasmodium vivax, UniProt P22290 211-508).
T3 chain: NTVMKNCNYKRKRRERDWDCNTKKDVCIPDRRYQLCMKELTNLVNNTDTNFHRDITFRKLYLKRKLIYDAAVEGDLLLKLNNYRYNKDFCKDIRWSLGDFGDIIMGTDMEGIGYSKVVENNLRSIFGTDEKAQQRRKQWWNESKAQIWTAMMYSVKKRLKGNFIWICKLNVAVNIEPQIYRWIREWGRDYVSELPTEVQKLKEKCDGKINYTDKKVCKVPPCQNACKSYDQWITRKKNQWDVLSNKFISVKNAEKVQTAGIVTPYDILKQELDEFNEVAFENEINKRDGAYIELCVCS
The assay is described as follows: SPR.

For assay [4], the target named is T4, PvDBP-RII subdomain 3 (Plasmodium vivax, UniProt P22290 211-508).
T4 chain: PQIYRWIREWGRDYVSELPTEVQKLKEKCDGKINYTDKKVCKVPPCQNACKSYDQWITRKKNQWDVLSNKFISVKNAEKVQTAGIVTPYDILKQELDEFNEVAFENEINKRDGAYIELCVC
The assay is described as follows: SPR. (In general: In SPR one partner is held on a chip, and binding of the other changes the refractive index at the surface.)

Usually Kd stands for a measure of binding affinity in units of concentration. Lower therefore signals a tighter complex. What is called koff is the first-order rate constant of dissociation. A low value points to a long-lived complex.

B1: monoclonal antibody DB9 (antibody, V domains shown)
VH: EVQLQESGPGLVKPSETLSLTCTVSGGSVSSSTYYWGWVRQPPGKGLEWIGSIYYSGSTYYNPSLKSRVTISVDTSKNQFSLKLSSVTAADTAVYYCARDGTGALDLWGRGTLVTVSS
VL: DIVMTQSPSTLSASVGDRVTITCRASQSISSWLAWYQQRPGKAPRLLIYKASSLLSGVPSRFGGSGSGTDFTLTISSLQPDDFATYHCQHYNTYPWTFGQGTKVEIK
notes: the Fab part of the heavy chain is in PDB 6R2S and PDB 9EZE; the light chain is in PDB 6R2S and PDB 9EZE
For B1, the equilibrium dissociation constant (Kd) with PvDBP-RII subdomain 3 [1] came to 1.11 nM; in assay [2] it was 2.63 nM. Besides, the dissociation rate constant (koff) in assay [3] turned out to be 0.000976 s⁻¹; in the assay with PvDBP-RII subdomain 3 [4], 0.00172 s⁻¹.

The values are drawn from paper doi:10.1101/2024.06.23.600241 (bioRxiv, 2024).
